This is an account of results in the supplement of paper PMC5998384.

For data set [1], the system named is HeLa Kyoto. As to the kind of experiment: solubility in G1/S (NP-40 vs SDS abundance) (log2 ratio); higher = more soluble. Particulars: cell cycle stage: G1/S.
In data set [2] the test system is HeLa Kyoto. As to the kind of experiment: melting temperature (median over replicates), in situ; higher = more thermally stable.
Data set [3] concerns HeLa Kyoto. As to the kind of experiment: solubility change mitosis vs G1/S (difference of NP-40 vs SDS log2 ratios) (log2 ratio difference); higher = more soluble in mitosis.
The test system of data set [4] is HeLa Kyoto. As to the kind of experiment: thermal stability score vs G1/S (z-score of summed log2 fold changes over temperatures); higher = more thermally stable than in G1/S.
Where [5] appears, read: cell cycle stage: early G1 (4.5 h after nocodazole release).
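Throughout, for melting temperature (median over replicates), in situ: HeLa Kyoto cells synchronized by double thymidine or nocodazole block, proteins quantified by TMT10plex mass spectrometry, three independent biological replicates.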
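Throughout, for solubility change mitosis vs G1/S (difference of NP-40 vs SDS log2 ratios): synchronized HeLa Kyoto cells (double thymidine block for G1/S, nocodazole release for mitosis), protein amounts in NP-40 versus SDS lysates quantified by mass spectrometry, three biological replicates.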
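Throughout, for solubility in G1/S (NP-40 vs SDS abundance): HeLa Kyoto cells arrested at G1/S by double thymidine block, proteins quantified by TMT10plex mass spectrometry in mild NP-40 versus SDS extracts, three biological replicates.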
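Throughout, for thermal stability score vs G1/S (z-score of summed log2 fold changes over temperatures): synchronized HeLa Kyoto cells, proteins quantified by TMT10plex mass spectrometry, three biological replicates, mitosis taken 0.5 h after nocodazole release, G1/S directly after double thymidine block.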

On to “MFSKFTSILQHAVEALAPSLPLQEDFVYHWKAITHYYIETSDDKAPVTDTNIPSHLEQMLDILVQEENERESGETGPCMEYLLHHKILETLYTLGKADCPPGMKQQVLVFYTKLLGRIRQPLLPHINVHRPVQKLIRLCGEVLATPTENEEIQFLCIVCAKLKQDPYLVNFFLENKMKSLASKGVPNVISEDTLKGQDSLSTDTGQSRQPEELSGATGMEQTELEDEPPHQMDHLSTSLDNLSVTSLPEASVVCPNQDYNLVNSLLNLTRSPDGRIAVKACEGLMLLVSLPEPAAAKCLTQSTCLCELLTDRLASLYKALPQSVDPLDIETVEAINWGLDSYSHKEDASAFPGKRALISFLSWFDYCDQLIKEAQKTAAVALAKAVHERFFIGVMEPQLMQTSEMGILTSTALLHRIVRQVTSDVLLQEMVFFILGEQREPETLAEISRHPLRHRLIEHCDHISDEISIMTLRMFEHLLQKPNEHILYNLVLRNLEERNYTEYKPLCPEDKDVVENGLIAGAVDLEEDPLFTDISPENTLPNQEWLSSSPPATPDHPKNDGKTEVHKIVNSFLCLVPDDAKSSYHVEGTGYDTYLRDAHRQFRDYCAICLRWEWPGSPKALEKCNLEAAFFEGHFLKVLFDRMGRILDQPYDVNLQVTSVLSRLSLFPHPHIHEYLLDPYVNLAPGCRSLFSVIVRVVGDLMLRIQRIQDFTPKLLLVRKRLLGLEPEGPIIDHITLLEGVIVLEEFCKELAAIAFVKYHASSTP [FAM160B1]”, for which the “solubility in G1/S (log2)” value in the data set with HeLa Kyoto [1] is 0.0585. Moreover, the melting temperature with HeLa Kyoto [2] (cell cycle stage: G1/S) was determined as 52.1 °C; in the data set with HeLa Kyoto [2] (cell cycle stage: mitosis), 51.1 °C. The “solubility change mitosis (log2)” value with HeLa Kyoto [3] is -0.212. Moreover, the results for the thermal stability score in the data set on HeLa Kyoto [4] (setting [5]) and in the data set on HeLa Kyoto [4] (cell cycle stage: mitosis) were -0.501 and -0.078, respectively.

As to “MFSRAGVAGLSAWTLQPQWIQVRNMATLKDITRRLKSIKNIQKITKSMKMVAAAKYARAERELKPARIYGLGSLALYEKADIKGPEDKKKHLLIGVSSDRGLCGAIHSSIAKQMKSEVATLTAAGKEVMLVGIGDKIRGILYRTHSDQFLVAFKEVGRKPPTFGDASVIALELLNSGYEFDEGSIIFNKFRSVISYKTEEKPIFSLNTVASADSMSIYDDIDADVLQNYQEYNLANIIYYSLKESTTSEQSARMTAMDNASKNASEMIDKLTLTFNRTRQAVITKELIEIISGAAALD [ATP5C1]”, in the data set with HeLa Kyoto [1], the “solubility in G1/S (log2)” value was determined as 0.283. Further, the melting temperature with HeLa Kyoto [2] (cell cycle stage: G1/S) stood at 58 °C; in the data set on HeLa Kyoto [2] (cell cycle stage: mitosis), 56.5 °C. Besides, the “solubility change mitosis (log2)” value in the data set on HeLa Kyoto [3] was -0.0222. In addition, the thermal stability score in the data set on HeLa Kyoto [4] (setting [5]) was -0.727; in the data set with HeLa Kyoto [4] (cell cycle stage: mitosis), -0.47.

Regarding “MFVARSIAADHKDLIHDVSFDFHGRRMATCSSDQSVKVWDKSESGDWHCTASWKTHSGSVWRVTWAHPEFGQVLASCSFDRTAAVWEEIVGESNDKLRGQSHWVKRTTLVDSRTSVTDVKFAPKHMGLMLATCSADGIVRIYEAPDVMNLSQWSLQHEISCKLSCSCISWNPSSSRAHSPMIAVGSDDSSPNAMAKVQIFEYNENTRKYAKAETLMTVTDPVHDIAFAPNLGRSFHILAIATKDVRIFTLKPVRKELTSSGGPTKFEIHIVAQFDNHNSQVWRVSWNITGTVLASSGDDGCVRLWKANYMDNWKCTGILKGNGSPVNGSSQQGTSNPSLGSTIPSLQNSLNGSSAGRKHS [SEH1L]”, in the data set with HeLa Kyoto [1], the “solubility in G1/S (log2)” value was -0.79. Also, the melting temperature came to 54.8 °C in the data set on HeLa Kyoto [2] (cell cycle stage: G1/S) and 51.6 °C in the data set on HeLa Kyoto [2] (cell cycle stage: mitosis). Also, the “solubility change mitosis (log2)” value in the data set on HeLa Kyoto [3] amounted to 0.295. The thermal stability score with HeLa Kyoto [4] (setting [5]) is -3.19; with HeLa Kyoto [4] (cell cycle stage: mitosis), -4.18.

On to “MFVQEEKIFAGKVLRLHICASDGAEWLEEATEDTSVEKLKERCLKHCAHGSLEDPKSITHHKLIHAASERVLSDARTILEENIQDQDVLLLIKKRAPSPLPKMADVSAEEKKKQDQKAPDKEAILRATANLPSYNMDRAAVQTNMRDFQTELRKILVSLIEVAQKLLALNPDAVELFKKANAMLDEDEDERVDEAALRQLTEMGFPENRATKALQLNHMSVPQAMEWLIEHAEDPTIDTPLPGQAPPEAEGATAAASEAAAGASATDEEARDELTEIFKKIRRKREFRADARAVISLMEMGFDEKEVIDALRVNNNQQNAACEWLLGDRKPSPEELDKGIDPDSPLFQAILDNPVVQLGLTNPKTLLAFEDMLENPLNSTQWMNDPETGPVMLQISRIFQTLNRT [UBAC1]”, for which the “solubility in G1/S (log2)” value with HeLa Kyoto [1] amounted to 0.313. For the same sequence, the melting temperature in the data set on HeLa Kyoto [2] (cell cycle stage: G1/S) turned out to be 50.9 °C; with HeLa Kyoto [2] (cell cycle stage: mitosis) it was 50.6 °C. Besides, the “solubility change mitosis (log2)” value with HeLa Kyoto [3] is -0.0991. For the same sequence, the thermal stability score in the data set on HeLa Kyoto [4] (setting [5]) was determined as 1.16; with HeLa Kyoto [4] (cell cycle stage: mitosis) it was 0.844.

Consider “MGAAHSASEEVRELEGKTGFSSDQIEQLHRRFKQLSGDQPTIRKENFNNVPDLELNPIRSKIVRAFFDNRNLRKGPSGLADEINFEDFLTIMSYFRPIDTTMDEEQVELSRKEKLRFLFHMYDSDSDGRITLEEYRNVVEELLSGNPHIEKESARSIADGAMMEAASVCMGQMEPDQVYEGITFEDFLKIWQGIDIETKMHVRFLNMETMALCH [TESC]”, for which, in the data set with HeLa Kyoto [1], the “solubility in G1/S (log2)” value was determined as 0.101. The melting temperature with HeLa Kyoto [2] (cell cycle stage: G1/S) is 51.1 °C; in the data set with HeLa Kyoto [2] (cell cycle stage: mitosis), 51.7 °C. In addition, the “solubility change mitosis (log2)” value in the data set with HeLa Kyoto [3] came out at 0.0705. The thermal stability score with HeLa Kyoto [4] (setting [5]) was found to be 0.145; with HeLa Kyoto [4] (cell cycle stage: mitosis), 1.31.

As for “MGAFLDKPKMEKHNAQGQGNGLRYGLSSMQGWRVEMEDAHTAVIGLPSGLESWSFFAVYDGHAGSQVAKYCCEHLLDHITNNQDFKGSAGAPSVENVKNGIRTGFLEIDEHMRVMSEKKHGADRSGSTAVGVLISPQHTYFINCGDSRGLLCRNRKVHFFTQDHKPSNPLEKERIQNAGGSVMIQRVNGSLAVSRALGDFDYKCVHGKGPTEQLVSPEPEVHDIERSEEDDQFIILACDGIWDVMGNEELCDFVRSRLEVTDDLEKVCNEVVDTCLYKGSRDNMSVILICFPNAPKVSPEAVKKEAELDKYLECRVEEIIKKQGEGVPDLVHVMRTLASENIPSLPPGGELASKRNVIEAVYNRLNPYKNDDTDSTSTDDMW [PPM1A]”, in the data set with HeLa Kyoto [1], the “solubility in G1/S (log2)” value amounted to 0.243. The melting temperature turned out to be 51.9 °C with HeLa Kyoto [2] (cell cycle stage: G1/S) and 52 °C with HeLa Kyoto [2] (cell cycle stage: mitosis). The “solubility change mitosis (log2)” value in the data set with HeLa Kyoto [3] was -0.159. Besides, the thermal stability score is 0.1 with HeLa Kyoto [4] (setting [5]) and -0.132 in the data set with HeLa Kyoto [4] (cell cycle stage: mitosis).

Take “MGALRPTLLPPSLPLLLLLMLGMGCWAREVLVPEGPLYRVAGTAVSISCNVTGYEGPAQQNFEWFLYRPEAPDTALGIVSTKDTQFSYAVFKSRVVAGEVQVQRLQGDAVVLKIARLQAQDAGIYECHTPSTDTRYLGSYSGKVELRVLPDVLQVSAAPPGPRGRQAPTSPPRMTVHEGQELALGCLARTSTQKHTHLAVSFGRSVPEAPVGRSTLQEVVGIRSDLAVEAGAPYAERLAAGELRLGKEGTDRYRMVVGGAQAGDAGTYHCTAAEWIQDPDGSWAQIAEKRAVLAHVDVQTLSSQLAVTVGPGERRIGPGEPLELLCNVSGALPPAGRHAAYSVGWEMAPAGAPGPGRLVAQLDTEGVGSLGPGYEGRHIAMEKVASRTYRLRLEAARPGDAGTYRCLAKAYVRGSGTRLREAASARSRPLPVHVREEGVVLEAVAWLAGGTVYRGETASLLCNISVRGGPPGLRLAASWWVERPEDGELSSVPAQLVGGVGQDGVAELGVRPGGGPVSVELVGPRSHRLRLHSLGPEDEGVYHCAPSAWVQHADYSWYQAGSARSGPVTVYPYMHALDTLFVPLLVGTGVALVTGATVLGTITCCFMKRLRKR [IGSF8]”: the “solubility in G1/S (log2)” value in the data set with HeLa Kyoto [1] was -0.0809. Also, the melting temperature with HeLa Kyoto [2] (cell cycle stage: G1/S) is 56.3 °C; in the data set with HeLa Kyoto [2] (cell cycle stage: mitosis) it was 54.7 °C. Besides, the “solubility change mitosis (log2)” value in the data set on HeLa Kyoto [3] was -0.0392. Further, the thermal stability score was -2.98 in the data set on HeLa Kyoto [4] (setting [5]) and -1.56 in the data set on HeLa Kyoto [4] (cell cycle stage: mitosis).
